From patent US20190202914A1 (HARBOUR BIOMED SHANGHAI, published 2019)

B1: CL5-dPTM′ (antibody, human IgG1, V domains shown)
VH: EVQLVESGGGLIQPGGSLRLSCAVSGFTVSKNYMSWVRQAPGKGLEWVSVVYSGGSKTYADSVKGRFTISRDNSKNTLYLQMNSLRAEDTAVYYCARAVPHSPSSFDIWGQGTMVTVSS
notes: HCAb variant with PTM removal
B2: CL5′-dPTM′ (antibody, human IgG1, V domains shown)
VH: EVQLVESGGGLIQPGGSLRLSCAVSGFTVSKNYMSWVRQAPGKGLEWVSVVYSGGSKTYADSVKGRFTISRDNSKNTLYLQMNSLRAEDTAVYYCARAVPHSPSSFDIWGQGTMVTVSS
notes: HCAb variant with PTM removal
B3: CL22-dPTM (antibody, human IgG1, V domains shown)
VH: EVQLVETGGGLIQPGGSLRLSCAVSGFTVRNNYMSWARQVPGKGLEWVSVIYSGGSITYADSVKGRFIISRDNSKNTLYLQMNGLRAEDTAVYYCARAVPHAPSAFDIWGQGTMVTVSS
notes: HCAb variant with PTM removal
B4: CL22 (antibody, human IgG1, V domains shown)
VH: EVQLVETGGGLIQPGGSLRLSCAVSGFTVRNNYMSWARQVPGKGLEWVSVIYSGGSITYADSVKGRFIISRDNSNNTLYLQMNGLRAEDTAVYYCARAVPHAPSAFDIWGQGTMVTVSS
notes: Human heavy-chain-only antibody (HCAb): two heavy chains, no light chain; also called clone 22
B5: CL5′-eA-dPTM′ (antibody, human IgG1, V domains shown)
VH: EVQLVESGGGLIQPGGSLRLSCAVSGFTVSKNYMSWVRQAPGKGLEWVSVVYSGGSKTYADSVKGRFTISRDNSKNTLYLQMNSLRAEDTAVYYCARAVPHSPSSFDIWGQGTMVTVSS
notes: HCAb variant with PTM removal and the eA (S239D, I332E) Fc
B6: CL5 (antibody, human IgG1, V domains shown)
VH: EVQLAETGGGLIQPGGSLRLSCAVSGFNVSKNYMSWVRQVPGKGLEWVAVVYSGGSKTYADSVKGRFILSRDNSDNTLYLQMNNLRAEDTAVYYCARAVPHSPSSFDIWGQGTMVTVSS
notes: Human heavy-chain-only antibody (HCAb): two heavy chains, no light chain; also called HCAb clone 5
B7: CL11-dPTM′ (antibody, human IgG1, V domains shown)
VH: EVQLVESGGGLIQPGGSLRLSCAASGFTVSRIYMSWVRQAPGKGLEWVSVIYSGGSIYYADSVKGRFTISRDSSKNTVYLQMNSLRAEDTAVYYCARAVPSAPSSFDIWGQGTMVTVSS
notes: HCAb variant with PTM removal
B8: CL25-dPTM (antibody, human IgG1, V domains shown)
VH: EVQLVETGGGLIQPGGSLRLSCAASGFTVSSNYMSWVRQAPGKGLEWVSVIYSGGSTYYADSVKGRFTISRDNSKNTLYLQMSSLRAEDTAVYYCARAVPHSPSAFDRWGQGTLVTVSS
notes: HCAb variant with PTM removal
B9: CL25 (antibody, human IgG1, V domains shown)
VH: EVQLVETGGGLIQPGGSLRLSCAASGFTVSSNYMSWVRQAPGKGLEWVSVIYSGGSTYYADSVKGRFTISRDNSKNTLYLQMSNLTAEDTAVYYCARAVPHSPSAFDRWGQGTLVTVSS
notes: Human heavy-chain-only antibody (HCAb): two heavy chains, no light chain; also called clone25
B10: CL5-dPTM (antibody, human IgG1, V domains shown)
VH: EVQLAETGGGLIQPGGSLRLSCAVSGFTVSKNYMSWVRQVPGKGLEWVAVVYSGGSKTYADSVKGRFILSRDNSDNTLYLQMNNLRAEDTAVYYCARAVPHSPSSFDIWGQGTMVTVSS
notes: HCAb variant with PTM removal
B11: CL25-dPTM′ (antibody, human IgG1, V domains shown)
VH: EVQLVESGGGLIQPGGSLRLSCAASGFTVSSNYMSWVRQAPGKGLEWVSVIYSGGSTYYADSVKGRFTISRDNSKNTLYLQMNSLRAEDTAVYYCARAVPHSPSAFDRWGQGTLVTVSS
notes: HCAb variant with PTM removal
B12: CL3 (antibody, human IgG1, V domains shown)
VH: EVQLVEIGGGEIQPGGSLRLSCAASGFNVSKNYMSWVRQAPGKGLEWVSVIYSGGGTEYAASVKGRFNISRDSSKNMLYLQMNNLRAEDTAVYYCARAVPRPHGTDIWGQGTMVTVSS
notes: Human heavy-chain-only antibody (HCAb): two heavy chains, no light chain

Tests used:
[1] = target: T1, human CTLA-4 expressed on cells (293-hCTLA-4 cells; CTLA-4-expressing CHO-K1 cells) (human, UniProt P16410 36-223); experiment: cell-based blocking assay, flow cytometry: % blocking of biotin labeled B7.1 binding to 293-hCTLA-4 cells
T1 construct: The same id is used for native CTLA-4 on PBMC in the IL-2 assay; also called CD152; cell-expressed CTLA-4
T1 sequence: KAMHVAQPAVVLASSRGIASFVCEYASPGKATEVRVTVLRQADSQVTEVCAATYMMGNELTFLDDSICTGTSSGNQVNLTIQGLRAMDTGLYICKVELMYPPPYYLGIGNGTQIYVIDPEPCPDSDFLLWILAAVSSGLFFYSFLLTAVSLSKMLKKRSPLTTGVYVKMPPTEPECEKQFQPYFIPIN

[2] = target: T1, human CTLA-4 expressed on cells …; experiment: flow cytometry (MFI) on 293F-hCTLA-4 cells, Alexa 488 anti-human (H+L) detection
Procedure: Cell-based binding assay was performed to determine the binding ability of the anti-CTLA-4 antibody variants with PTM removal to human CTLA-4. The assay procedure was similar to that described in Example 3. […] Cells were centrifuged and blocked in blocking buffer (containing 2% BSA, pH 7.4 PBS buffer, w/v) at 1×10⁶ cells/mL for 15 minutes at 37° C. 200 μL of cells were dispensed to each well of the 96-well plates (2×10⁵ cells/well). The plates were centrifuged and the supernatants were discarded. The cells were resuspended in 100 μL of anti-CTLA-4 antibodies prepared in blocking buffer. The plates were incubated at 4° C. for 90 minutes and washed twice. After the blocking buffer was discarded, the cells were resuspended in 100 μL of Alexa 488-labeled anti-human (H+L) antibody (1:500, Invitrogen) and incubated at 4° C. for 1 hour. The cells were washed and resuspended in 200 μL of blocking buffer. The mean fluorescence intensity (MFI) was determined using FACS Calibur (BD).

[3] = target: T2, Recombinant human CTLA-4-his protein (CT4-H5229, Acro Bio) (human, UniProt P16410 36-161); experiment: SPR, Biacore T200, antibody immobilised, CTLA-4-his injected, 1:1 model
T2 construct: extracellular domain; Bought protein; also called Human CTLA-4^ECD-his; not shown: his tag
T2 sequence (looked up): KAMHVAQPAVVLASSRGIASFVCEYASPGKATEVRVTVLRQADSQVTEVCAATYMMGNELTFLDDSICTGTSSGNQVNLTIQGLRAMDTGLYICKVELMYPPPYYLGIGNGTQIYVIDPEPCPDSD
Procedure: Dissociation constants were determined by Biacore T200 (GE Healthcare), following the specifications of the instrument provided by the manufacturer. Briefly, 1 μg/mL diluted anti-CTLA-4 antibodies in 10 mM NaOAc (pH 5.0, sigma) were immobilized on flow cell of a Series S CMS sensor chip. Remaining active ester groups were blocked with 1 M ethanolamine (pH 8.5). With HBS-EP+ as the running buffer, recombinant human CTLA-4-his (CT4-H5229, AcroBio) and cynoCTLA-4-his proteins (CT4-05227, AcroBio) with five serial diluted concentrations were injected over flow cells at 30 μL/min with the association time of 180 s. Buffer flow was maintained for dissociation for 600s.

[4] = target: T1, human CTLA-4 expressed on cells …; experiment: cell-based blocking assay, flow cytometry: % blocking of biotinylated B7.1 ECD-Fc binding to 293-hCTLA-4 cells
Procedure: Cell-Based Receptor-Ligand Binding assay was performed to determine the ability of the anti-CTLA-4 antibodies to block the binding of CTLA-4 to its ligands B7.1. Recombinant B7.1^ECD-Fc protein (B71-H5259, Acro Bio) was biotinylated using EZ-LINK NHS-PEG12-Biotin (Thermo Scientific#21312) according to the manufacturer's instruction. Biotinylated B7.1^ECD-Fc protein was concentrated and free label removed by using Amicon centrifugal filter (10 kDa cut off). The extracellular domain of B7.1 corresponded to amino acids Val35-Asn242 of Uniprot database protein P33681.
The culture medium was aspirated, and the cells were washed twice with PBS. The cells were treated with enzyme-free cell dissociation solution (Versene solution, Invitrogen) and collected. Dissociation solution was neutralized by the addition of 8 mL of culture medium, and cell counts were determined. Cells were centrifuged at 300 g for 5 minutes and resuspended in blocking buffer (containing 2% BSA, pH 7.4 PBS buffer, w/v) at 1×10⁶ cells/mL. The cells were blocked for 15 minutes at 37° C. Meanwhile, the wells of 96-well round-bottom plates were blocked with 200 μL of blocking buffer for 1 hour at 37° C. The blocking buffer was discarded, and 200 μL of cells were dispensed to each well of the 96-well plates (2×10⁵ cells/well). The plates were centrifuged at 500 g for 5 minutes, and the supernatants were discarded. The cells were resuspended in 100 μL of anti-CTLA-4 antibodies prepared in blocking buffer with varying concentrations. 100 μL of biotinylated B7.1 ECD-Fc (60 μg/mL in blocking buffer) were added to each well of 96-well plate and mixed by shaking gently. The plates were incubated at 4° C. for 90 minutes and washed twice with 200 μL blocking buffer. The blocking buffer was discarded, and the cells were resuspended in 100 μL of streptavidin-Alexa 488 solution (Invitrogen, 1:500 in blocking buffer) and incubated at 4° C. for 1 hour. The plates were washed three times with blocking buffer and added with 200 μL of blocking buffer.
The mean fluorescence intensity (MFI) was determined using FACS Calibur (BD).

[5] = target: T3, cyno CTLA-4 expressed on 293 cells (293-cynoCTLA-4 cells) (cyno, UniProt G7PL88 36-223); experiment: flow cytometry (MFI) on 293 cells expressing cynomolgus CTLA-4, Alexa 488 anti-human (H+L) detection
T3 construct: also called cynomolgus CTLA-4
T3 sequence: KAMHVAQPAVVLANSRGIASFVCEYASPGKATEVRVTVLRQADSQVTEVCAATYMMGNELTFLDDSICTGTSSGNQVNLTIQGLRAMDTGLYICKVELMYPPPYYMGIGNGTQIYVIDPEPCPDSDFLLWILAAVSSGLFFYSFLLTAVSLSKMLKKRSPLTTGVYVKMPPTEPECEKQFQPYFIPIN
Procedure: (§1) The culture medium was aspirated, and the cells were washed twice with HBSS (Hanks Balanced Salt Solution, Invitrogen). The cells were treated with enzyme-free cell dissociation solution (Versene solution, Invitrogen) and collected. The cells were then washed twice with HBSS, cell counts were determined, and cells were resuspended with HBSS at 2×10⁶ cells/mL. BSA was added to the cell suspension to a final concentration of 1%, and the cells were blocked for 30 minutes on ice and then washed twice with HBSS. The cells were collected after centrifugation and resuspended in FACS buffer (HBSS+1% BSA, v/v) at 2×10⁶ cells/mL. 100 μL of the cell suspension were then added to each well of a 96-well plate. 100 μL of purified anti-CTLA-4 antibodies from Example 2 or control antibodies were added to each well of the 96-well plate and incubated for 1 hour on ice, wherein the heavy chain and light chain of the Ipilimumab analogue had amino acid sequences of SEQ ID NO.: 199 and SEQ ID NO.: 200, respectively. Cells were washed twice with FACS buffer, and 100 μL of Alexa 488-labeled anti-human (H+L) antibody (Invitrogen) were added to the 96-well plate and incubated for 1 hour on ice. The samples were washed three times with FACS buffer, and 100 μL of fixation buffer (containing 4% paraformaldehyde, v/v) were added to each well and incubated for 10 minutes. The cells were then washed twice with FACS buffer and resuspended in 100 μL of FACS buffer.

[6] = target: T1, human CTLA-4 expressed on cells …; experiment: flow cytometry (MFI) on 293 cells expressing human CTLA-4, Alexa 488 anti-human (H+L) detection
Procedure: as §1

Binder | IC50 (read off the curve) [1] [nM] | EC50 (read off the curve) [2] [nM] | EC50 (read off the curve) [5] [nM] | EC50 (read off the curve) [6] [nM] | further results
B1 | ~7 | ~1 |  |  | 
B2 |  |  |  |  | Kd [3]: 0.0428 nM; koff [3]: 0.000229 s⁻¹; kon [3]: 5.35e+06 M⁻¹ s⁻¹
B3 | ~7 | ~1 |  |  | 
B4 |  |  | ~1 | ~2 | IC50 (read off the curve) [4]: ~10 nM
B5 |  |  |  |  | Kd [3]: 0.014 nM; koff [3]: 7.58e-05 s⁻¹; kon [3]: 5.4e+06 M⁻¹ s⁻¹
B6 |  |  | ~1 | ~2 | IC50 (read off the curve) [4]: ~10 nM
B7 | ~7 | ~1 |  |  | 
B8 | ~7 | ~1 |  |  | 
B9 |  |  | ~1 | ~2 | 
B10 | ~7 | ~1 |  |  | 
B11 | ~7 | ~1 |  |  | 
B12 |  |  | ~1 | ~2 | 
